Source: patent US20240270846A1 (published 2024)

B1: CE115HA000 Q50E one-arm antibody (antibody, human IgG1, kappa, L234A L235A, N297A, name in Kabat numbering)
heavy: QVQLVESGGGVVQPGRSLRLSCAASGFTFSNAWMHWVRQAPGKGLEWVAEIKAKSNNYATYYAESVKGRFTISRDDSKNSLYLQMNSLKTEDTAVYYCRYVHYGAYYGVDAWGQGTTVTVSSASTKGPSVFPLAPSSKSTSGGTAALGCLVKDYFPEPVTVSWNSGALTSGVHTFPAVLQSSGLYSLSSVVTVPSSSLGTQTYICNVNHKPSNTKVDKKVEPKSCDKTHTCPPCPAPEAAGGPSVFLFPPKPKDTLMISRTPEVTCVVVDVSHEDPEVKFNWYVDGVEVHNAKTKPREEQYASTYRVVSVLTVLHQDWLNGKEYKCKVSNKALPAPIEKTISKAKGQPREPQVYTLPPSRCELTKNQVSLSCAVKGFYPSDIAVEWESNGQPENNYKTTPPVLDSDGSFFLVSKLTVDKSRWQQGNVFSCSVMHEALHNHYTQKSLSLSPDYKDDDDK
chain: EPKSSDKTHTCPPCPAPELLGGPSVFLFPPKPKDTLMISRTPEVTCVVVDVSHEDPEVKFNWYVDGVEVHNAKTKPREEQYNSTYRVVSVLTVLHQDWLNGKEYKCKVSNKALPAPIEKTISKAKGQPREPQVCTLPPSRDELTKNQVSLWCLVKGFYPSDIAVEWESNGQPENNYKTTPPVLDSDGSFFLYSKLTVDKSRWQQGNVFSCSVMHEALHNRYTQKSLSLSP
light: DIVMTQSPLSLPVTPGEPASISCRSSQSLVHSNRNTYLHWYQQKPGQAPRLLIYKVSNRFSGVPDRFSGSGSGTDFTLKISRVEAEDVGVYYCGQGTQVPYTFGQGTKLEIKRTVAAPSVFIFPPSDEQLKSGTASVVCLLNNFYPREAKVQWKVDNALQSGNSQESVTEQDSKDSTYSLSSTLTLSKADYEKHKVYACEVTHQGLSSPVTKSFNRGEC
notes: one-arm antibody
B2: CE115HA000 Q50I one-arm antibody (antibody, human IgG1, kappa, L234A L235A, N297A, name in Kabat numbering)
heavy: QVQLVESGGGVVQPGRSLRLSCAASGFTFSNAWMHWVRQAPGKGLEWVAIIKAKSNNYATYYAESVKGRFTISRDDSKNSLYLQMNSLKTEDTAVYYCRYVHYGAYYGVDAWGQGTTVTVSSASTKGPSVFPLAPSSKSTSGGTAALGCLVKDYFPEPVTVSWNSGALTSGVHTFPAVLQSSGLYSLSSVVTVPSSSLGTQTYICNVNHKPSNTKVDKKVEPKSCDKTHTCPPCPAPEAAGGPSVFLFPPKPKDTLMISRTPEVTCVVVDVSHEDPEVKFNWYVDGVEVHNAKTKPREEQYASTYRVVSVLTVLHQDWLNGKEYKCKVSNKALPAPIEKTISKAKGQPREPQVYTLPPSRCELTKNQVSLSCAVKGFYPSDIAVEWESNGQPENNYKTTPPVLDSDGSFFLVSKLTVDKSRWQQGNVFSCSVMHEALHNHYTQKSLSLSPDYKDDDDK
chain: EPKSSDKTHTCPPCPAPELLGGPSVFLFPPKPKDTLMISRTPEVTCVVVDVSHEDPEVKFNWYVDGVEVHNAKTKPREEQYNSTYRVVSVLTVLHQDWLNGKEYKCKVSNKALPAPIEKTISKAKGQPREPQVCTLPPSRDELTKNQVSLWCLVKGFYPSDIAVEWESNGQPENNYKTTPPVLDSDGSFFLYSKLTVDKSRWQQGNVFSCSVMHEALHNRYTQKSLSLSP
light: DIVMTQSPLSLPVTPGEPASISCRSSQSLVHSNRNTYLHWYQQKPGQAPRLLIYKVSNRFSGVPDRFSGSGSGTDFTLKISRVEAEDVGVYYCGQGTQVPYTFGQGTKLEIKRTVAAPSVFIFPPSDEQLKSGTASVVCLLNNFYPREAKVQWKVDNALQSGNSQESVTEQDSKDSTYSLSSTLTLSKADYEKHKVYACEVTHQGLSSPVTKSFNRGEC
notes: one-arm antibody
B3: CE115HA000 Q50K one-arm antibody (antibody, human IgG1, kappa, L234A L235A, N297A, name in Kabat numbering)
heavy: QVQLVESGGGVVQPGRSLRLSCAASGFTFSNAWMHWVRQAPGKGLEWVAKIKAKSNNYATYYAESVKGRFTISRDDSKNSLYLQMNSLKTEDTAVYYCRYVHYGAYYGVDAWGQGTTVTVSSASTKGPSVFPLAPSSKSTSGGTAALGCLVKDYFPEPVTVSWNSGALTSGVHTFPAVLQSSGLYSLSSVVTVPSSSLGTQTYICNVNHKPSNTKVDKKVEPKSCDKTHTCPPCPAPEAAGGPSVFLFPPKPKDTLMISRTPEVTCVVVDVSHEDPEVKFNWYVDGVEVHNAKTKPREEQYASTYRVVSVLTVLHQDWLNGKEYKCKVSNKALPAPIEKTISKAKGQPREPQVYTLPPSRCELTKNQVSLSCAVKGFYPSDIAVEWESNGQPENNYKTTPPVLDSDGSFFLVSKLTVDKSRWQQGNVFSCSVMHEALHNHYTQKSLSLSPDYKDDDDK
chain: EPKSSDKTHTCPPCPAPELLGGPSVFLFPPKPKDTLMISRTPEVTCVVVDVSHEDPEVKFNWYVDGVEVHNAKTKPREEQYNSTYRVVSVLTVLHQDWLNGKEYKCKVSNKALPAPIEKTISKAKGQPREPQVCTLPPSRDELTKNQVSLWCLVKGFYPSDIAVEWESNGQPENNYKTTPPVLDSDGSFFLYSKLTVDKSRWQQGNVFSCSVMHEALHNRYTQKSLSLSP
light: DIVMTQSPLSLPVTPGEPASISCRSSQSLVHSNRNTYLHWYQQKPGQAPRLLIYKVSNRFSGVPDRFSGSGSGTDFTLKISRVEAEDVGVYYCGQGTQVPYTFGQGTKLEIKRTVAAPSVFIFPPSDEQLKSGTASVVCLLNNFYPREAKVQWKVDNALQSGNSQESVTEQDSKDSTYSLSSTLTLSKADYEKHKVYACEVTHQGLSSPVTKSFNRGEC
notes: one-arm antibody
B4: CE115HA000 Q50L one-arm antibody (antibody, human IgG1, kappa, L234A L235A, N297A, name in Kabat numbering)
heavy: QVQLVESGGGVVQPGRSLRLSCAASGFTFSNAWMHWVRQAPGKGLEWVALIKAKSNNYATYYAESVKGRFTISRDDSKNSLYLQMNSLKTEDTAVYYCRYVHYGAYYGVDAWGQGTTVTVSSASTKGPSVFPLAPSSKSTSGGTAALGCLVKDYFPEPVTVSWNSGALTSGVHTFPAVLQSSGLYSLSSVVTVPSSSLGTQTYICNVNHKPSNTKVDKKVEPKSCDKTHTCPPCPAPEAAGGPSVFLFPPKPKDTLMISRTPEVTCVVVDVSHEDPEVKFNWYVDGVEVHNAKTKPREEQYASTYRVVSVLTVLHQDWLNGKEYKCKVSNKALPAPIEKTISKAKGQPREPQVYTLPPSRCELTKNQVSLSCAVKGFYPSDIAVEWESNGQPENNYKTTPPVLDSDGSFFLVSKLTVDKSRWQQGNVFSCSVMHEALHNHYTQKSLSLSPDYKDDDDK
chain: EPKSSDKTHTCPPCPAPELLGGPSVFLFPPKPKDTLMISRTPEVTCVVVDVSHEDPEVKFNWYVDGVEVHNAKTKPREEQYNSTYRVVSVLTVLHQDWLNGKEYKCKVSNKALPAPIEKTISKAKGQPREPQVCTLPPSRDELTKNQVSLWCLVKGFYPSDIAVEWESNGQPENNYKTTPPVLDSDGSFFLYSKLTVDKSRWQQGNVFSCSVMHEALHNRYTQKSLSLSP
light: DIVMTQSPLSLPVTPGEPASISCRSSQSLVHSNRNTYLHWYQQKPGQAPRLLIYKVSNRFSGVPDRFSGSGSGTDFTLKISRVEAEDVGVYYCGQGTQVPYTFGQGTKLEIKRTVAAPSVFIFPPSDEQLKSGTASVVCLLNNFYPREAKVQWKVDNALQSGNSQESVTEQDSKDSTYSLSSTLTLSKADYEKHKVYACEVTHQGLSSPVTKSFNRGEC
notes: one-arm antibody

Molecular target: T1, CD3 epsilon homodimer protein (UniProt P07766 23-126)
T1 construct: also called CD3 (CD3 epsilon)
T1 sequence (P07766 23-126): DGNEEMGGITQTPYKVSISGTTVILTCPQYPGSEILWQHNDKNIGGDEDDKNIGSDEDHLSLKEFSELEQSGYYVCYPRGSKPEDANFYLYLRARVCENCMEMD
Assay: SPR Biacore T200, antibody over immobilised CD3e homodimer;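 further: CD3 epsilon homodimer amine-coupled on a CM4 chip, run at 25 °C in HBS-EP+, Z = bound amount of each single-residue H chain variant over that of the parent antibody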

Q: Which “ratio of amounts bound (Z=Y/X vs CE115HA000)” value (“ratio of amounts bound” below) does the source give for B1 here?
A: The value was 0.26.

Q: Which “ratio of amounts bound” value does the source give for B2 here?
A: Its value is 0.4.

Q: For B3, which “ratio of amounts bound” value is on record?
A: The value was 0.33.

Q: How did the “ratio of amounts bound” value turn out when B4 was run?
A: The value was 0.23.
